Results taken from patent US20220275059A1 (HARBOUR ANTIBODIES, published 2022).
Where “and” joins values, the source holds several entries; their conditions need not be identical. Equal values may be shown once.

Columns and labels:
[1] = target: T1, MERS-S1^B domain (receptor binding domain) (MERS-CoV EMC isolate, UniProt K9N5Q8 358-588); test: see FIGS. 5(A) and 29(A)
[2] = target: T1, MERS-S1^B domain (receptor binding …); test: see FIG. 5A
[3] = target: T2, MERS-CoV S S1 subunit (MERS-S1) (MERS-CoV EMC isolate, UniProt K9N5Q8 19-748); test: see FIG. 29A
[4] = target: T2, MERS-CoV S S1 subunit (MERS-S1); test: ELISA on coated MERS-S1, OD450 [D]
[5] = target: MERS-S2 ectodomain (MERS-S2^ecto) (MERS-CoV EMC isolate, UniProt K9N5Q8 752-1262)
[6] = target: T3, MERS-S on pseudotyped VSV particles (MERS-S carrying a 16-a.a. cytoplasmic tail truncation) (MERS-CoV, UniProt K9N5Q8 18-1337); test: cell-based or functional assay
[7] = target: T1, MERS-S1^B domain (receptor binding …); test: ELISA on coated MERS-S1^B, OD450 [D]
[8] = target: T4, NL63 coronavirus spike protein (HCoV-NL63, UniProt Q6Q1S2 16-1291); test: ELISA on NL63 Secto
T4 sequence: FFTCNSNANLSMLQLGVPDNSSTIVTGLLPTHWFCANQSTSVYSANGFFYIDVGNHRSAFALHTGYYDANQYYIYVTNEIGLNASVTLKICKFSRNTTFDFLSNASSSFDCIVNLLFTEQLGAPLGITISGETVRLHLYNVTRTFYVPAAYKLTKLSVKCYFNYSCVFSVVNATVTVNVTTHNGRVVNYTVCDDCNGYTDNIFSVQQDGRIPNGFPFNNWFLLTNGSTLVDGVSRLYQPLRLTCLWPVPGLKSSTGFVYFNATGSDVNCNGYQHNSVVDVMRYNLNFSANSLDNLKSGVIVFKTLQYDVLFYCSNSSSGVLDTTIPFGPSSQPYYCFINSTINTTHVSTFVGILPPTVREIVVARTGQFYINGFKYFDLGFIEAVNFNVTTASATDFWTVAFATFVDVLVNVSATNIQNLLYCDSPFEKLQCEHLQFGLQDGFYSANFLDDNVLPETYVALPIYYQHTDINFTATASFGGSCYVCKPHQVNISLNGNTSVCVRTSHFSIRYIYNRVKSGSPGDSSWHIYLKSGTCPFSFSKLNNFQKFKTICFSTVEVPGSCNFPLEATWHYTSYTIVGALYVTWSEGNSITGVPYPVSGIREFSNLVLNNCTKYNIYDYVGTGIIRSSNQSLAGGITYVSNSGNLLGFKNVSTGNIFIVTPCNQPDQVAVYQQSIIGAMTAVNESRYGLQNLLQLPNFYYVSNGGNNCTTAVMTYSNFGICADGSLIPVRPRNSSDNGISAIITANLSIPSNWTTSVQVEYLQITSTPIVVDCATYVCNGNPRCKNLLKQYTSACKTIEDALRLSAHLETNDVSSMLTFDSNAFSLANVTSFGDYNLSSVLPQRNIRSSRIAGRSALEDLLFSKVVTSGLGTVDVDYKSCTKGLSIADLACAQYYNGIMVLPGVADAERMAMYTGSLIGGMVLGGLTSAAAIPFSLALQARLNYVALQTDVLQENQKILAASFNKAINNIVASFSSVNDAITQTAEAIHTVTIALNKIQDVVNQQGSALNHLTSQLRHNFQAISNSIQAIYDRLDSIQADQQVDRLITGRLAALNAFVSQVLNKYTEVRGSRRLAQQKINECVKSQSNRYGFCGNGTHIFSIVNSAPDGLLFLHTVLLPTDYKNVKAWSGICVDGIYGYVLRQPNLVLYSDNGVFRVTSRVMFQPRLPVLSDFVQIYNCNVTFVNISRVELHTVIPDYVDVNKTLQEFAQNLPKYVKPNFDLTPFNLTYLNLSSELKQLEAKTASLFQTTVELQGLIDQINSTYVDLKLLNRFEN

[9] = target: T3, MERS-S on pseudotyped VSV particles …; test: cell-based or functional assay; remark: listed apart in the source
MERS-S1^A domain = target: T5, MERS-S1^A domain (MERS-CoV EMC isolate, UniProt K9N5Q8 19-357); test: ELISA on coated MERS-S1^A, OD450 [D]
T5 sequence: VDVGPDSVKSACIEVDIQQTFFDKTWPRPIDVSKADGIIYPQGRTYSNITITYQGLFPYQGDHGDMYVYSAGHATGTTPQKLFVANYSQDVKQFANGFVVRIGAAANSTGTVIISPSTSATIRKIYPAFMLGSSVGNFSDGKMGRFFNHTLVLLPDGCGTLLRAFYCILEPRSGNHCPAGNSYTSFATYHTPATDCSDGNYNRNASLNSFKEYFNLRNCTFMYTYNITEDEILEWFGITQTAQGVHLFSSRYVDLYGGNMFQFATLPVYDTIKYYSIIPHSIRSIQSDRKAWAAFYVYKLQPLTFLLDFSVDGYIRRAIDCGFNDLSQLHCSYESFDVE

peptide 11 = test: ELISA on coated overlapping MERS-S2 peptides, A450 [D00032 Fig. 14(B]
peptide 10 = test: as above
[10] = target: T2, MERS-CoV S S1 subunit (MERS-S1); test: MERS-S1 specific ELISA

B1: 7.7a9 (antibody, V domains shown)
VH: EVQLLESGGGSVQPGGSLRLSCEASGFTFNTYPMSWVRQAPGKGLEWVSGISGSGDRTFYEDSVKGRFTISRDNSKNTLYLQMHSLRGEDTAVYYCAKDLGGEGYWGQGTLVTVSS
VL: QAVVTQESALTTSPGETVTLTCRSSTGAVTTSNYANWVQKKPDHLFTGLIGGTNNRAPGVPARFSGSLIGDKAALTITGAQTEDEAIYFCALWYSNHSVFGGGTKLTVLG
- binding result [1]: binds

B2: 7.4f3 (antibody, V domains shown)
VH: EVQLLESGGGLVQPGGSLRLSCEDSGVTFSSNPMSWVRQGPGKGLEWVSGISGSGDRTFYEDSVKGRFTISRDNSKNTLYLQMNSLRAEDTAVYYCAKDLGGEGNWGQGTLVTVSS
VL: QAVVTQESALTTSPGETVTLTCRSSTGAVTISNYANWVQEKPDHSFTGLIGGTNNRAPGVPARFSGSLIGDKAALTITGAQTEDEAIYFCALWYNNQSVFGGGTKLTVLG
- binding result [2]: binds

B3: 7.8h1 (antibody, V domains shown)
VH: QVQLVQSGAEVKKPGASVKVSCKASGYTFTSYDINWVRQATGQGLEWMGWMNPISGNTGYAQKFQGRVTMTRNTSRSTAYMELSSLRSEDTAVYYCARGQWLFDYWGQGTLVTVSS
VL: DIQMTQSPSTLSASIGDRVTITCRASQTISSWLAWYQQKPGKAPKLLIYKASSLESGVPSRFSGSGSGTEFTLTISSLQPDDFATYYCQQYNFYSYTFGQGTKLEIRR
- binding result [3]: binds

B4: 1.6c7 (antibody, V domains shown)
VH: QVQLQQSGPGLVKPSQTLSLTCAISGDSVSSDSAAWNWIRQSPSRGLEWLGRTYFRSKWNNHYAVSVKSRITINPDTSKNQFSLLLNPVTPEDTAVYYCARATLARGALDYWGQGTLVTVSS
VL: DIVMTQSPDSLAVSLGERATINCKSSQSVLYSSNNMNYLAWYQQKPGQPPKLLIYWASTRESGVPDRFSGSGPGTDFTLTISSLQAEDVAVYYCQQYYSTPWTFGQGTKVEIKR
- binding result [4]: no binding (tested: about 5x10^5 ng/ml)
- EC50 (read off the curve) [5]: ~0.03 mg/L
- IC50, neutralisation of MERS-S VSV pseudovirus on Vero cells [6]: 0.367 µg/ml and 2.45 nM
- binding result [7]: no binding (tested: about 5x10^5 ng/ml)
- binding result [8]: no binding (tested: 25.00 (no unit printed))
- IC50, MERS-S pseudovirus (human IgG1) [9]: 2.45 nM
- IC50, neutralization of MERS-S pseudovirus infectivity (1.6c7 antibody, H2L2) [9]: ~0.59 mg/L
- binding result (MERS-S1^A domain): no binding (tested: about 5x10^5 ng/ml)
- binding result (peptide 11): no binding
- binding result (peptide 10): no binding

B5: 5F1 heavy chain-only antibody (antibody, V domains shown)
VH: EVQLVESGGGLVQPGGSLRLSCAASGFTFSSYWMHWVRQAPGKGLVWVSRINSDGSSTSYADSVKGRFTISRDNAKNTLYLQMNSLRAEDTAVYYCGNPYFDYWGQGTLVTVSS
- binding result [10]: binds
